B1: Pistol ribozyme (parent)
chain: GGGUCGUUGUUCCAUAAUCGCGUGGAUAUGGCACGCAAGUUUCUACCGGGCACCGUAAAUGUCCGACUGGAGCCGUUCGGGCGGCUAUAAACAGACCUCAGGCCCGAAGCGUGGCGGCACCUGCCGCCGGUGGUAAAAAAGAUCGGAAGAGCACACGUCU

Variants of: B1
Test: aptazyme ON/OFF ratio, guanine; higher = stronger switching; co-transcriptional cleavage with and without guanine

Variant | aptazyme ON/OFF ratio
GGGUCGCGGGACUAUAAUCGCGUGGAUAUGGCACGCAAGUUUCUACCGGGCACCGUAAAUGUCCGACUGGAGCCGUUCGGGCGGCUAUAAACAGACCUCAGGCCCGAAGCGUGGCGGCACCUGCCGCCGGUGGUAAAAAAGAUCGGAAGAGCACACGUCU [U7C U8G U10G U11A C13U] | 1.28
GGGUCGUCUACAUAUAAUCGCGUGGAUAUGGCACGCAAGUUUCUACCGGGCACCGUAAAUGUCCGACUGGAGCCGUUCGGGCGGCUAUAAACAGACCUCAGGCCCGAAGCGUGGCGGCACCUGCCGCCGGUGGUAAAAAAGAUCGGAAGAGCACACGUCU [U8C G9U U10A U11C C12A C13U] | 1.24
GGGUCGUGUUAGUAUAAUCGCGUGGAUAUGGCACGCAAGUUUCUACCGGGCACCGUAAAUGUCCGACUGGAGCCGUUCGGGCGGCUAUAAACAGACCUCAGGCCCGAAGCGUGGCGGCACCUGCCGCCGGUGGUAAAAAAGAUCGGAAGAGCACACGUCU [U8G G9U U11A C12G C13U] | 1.18
GGGUCGGAAAUAGAUAAUCGCGUGGAUAUGGCACGCAAGUUUCUACCGGGCACCGUAAAUGUCCGACUGGAGCCGUUCGGGCGGCUAUAAACAGACCUCAGGCCCGAAGCGUGGCGGCACCUGCCGCCGGUGGUAAAAAAGAUCGGAAGAGCACACGUCU [U7G U8A G9A U10A C12A C13G] | 1.12
GGGUCGCGUUCGUAUAAUCGCGUGGAUAUGGCACGCAAGUUUCUACCGGGCACCGUAAAUGUCCGACUGGAGCCGUUCGGGCGGCUAUAAACAGACCUCAGGCCCGAAGCGUGGCGGCACCUGCCGCCGGUGGUAAAAAAGAUCGGAAGAGCACACGUCU [U7C U8G G9U U11C C12G C13U] | 1.35
GGGUCGAUUAUUAAUAAUCGCGUGGAUAUGGCACGCAAGUUUCUACCGGGCACCGUAAAUGUCCGACUGGAGCCGUUCGGGCGGCUAUAAACAGACCUCAGGCCCGAAGCGUGGCGGCACCUGCCGCCGGUGGUAAAAAAGAUCGGAAGAGCACACGUCU [U7A G9U U10A C12U C13A] | 1.29
GGGUCGGUACUAGAUAAUCGCGUGGAUAUGGCACGCAAGUUUCUACCGGGCACCGUAAAUGUCCGACUGGAGCCGUUCGGGCGGCUAUAAACAGACCUCAGGCCCGAAGCGUGGCGGCACCUGCCGCCGGUGGUAAAAAAGAUCGGAAGAGCACACGUCU [U7G G9A U10C C12A C13G] | 1.13
GGGUCGCUAUCAUAUAAUCGCGUGGAUAUGGCACGCAAGUUUCUACCGGGCACCGUAAAUGUCCGACUGGAGCCGUUCGGGCGGCUAUAAACAGACCUCAGGCCCGAAGCGUGGCGGCACCUGCCGCCGGUGGUAAAAAAGAUCGGAAGAGCACACGUCU [U7C G9A U11C C12A C13U] | 1.15
GGGUCGUCGAAGGAUAAUCGCGUGGAUAUGGCACGCAAGUUUCUACCGGGCACCGUAAAUGUCCGACUGGAGCCGUUCGGGCGGCUAUAAACAGACCUCAGGCCCGAAGCGUGGCGGCACCUGCCGCCGGUGGUAAAAAAGAUCGGAAGAGCACACGUCU [U8C U10A U11A C12G C13G] | 1.35
GGGUCGUAUUUCUAUAAUCGCGUGGAUAUGGCACGCAAGUUUCUACCGGGCACCGUAAAUGUCCGACUGGAGCCGUUCGGGCGGCUAUAAACAGACCUCAGGCCCGAAGCGUGGCGGCACCUGCCGCCGGUGGUAAAAAAGAUCGGAAGAGCACACGUCU [U8A G9U C13U] | 1.4
GGGUCGCCAGCUAAUAAUCGCGUGGAUAUGGCACGCAAGUUUCUACCGGGCACCGUAAAUGUCCGACUGGAGCCGUUCGGGCGGCUAUAAACAGACCUCAGGCCCGAAGCGUGGCGGCACCUGCCGCCGGUGGUAAAAAAGAUCGGAAGAGCACACGUCU [U7C U8C G9A U10G U11C C12U C13A] | 1.29
GGGUCGAAAGGAGAUAAUCGCGUGGAUAUGGCACGCAAGUUUCUACCGGGCACCGUAAAUGUCCGACUGGAGCCGUUCGGGCGGCUAUAAACAGACCUCAGGCCCGAAGCGUGGCGGCACCUGCCGCCGGUGGUAAAAAAGAUCGGAAGAGCACACGUCU [U7A U8A G9A U10G U11G C12A C13G] | 1.29
GGGUCGAGAGGCCAUAAUCGCGUGGAUAUGGCACGCAAGUUUCUACCGGGCACCGUAAAUGUCCGACUGGAGCCGUUCGGGCGGCUAUAAACAGACCUCAGGCCCGAAGCGUGGCGGCACCUGCCGCCGGUGGUAAAAAAGAUCGGAAGAGCACACGUCU [U7A U8G G9A U10G U11G] | 1.39
GGGUCGAAUUCCUAUAAUCGCGUGGAUAUGGCACGCAAGUUUCUACCGGGCACCGUAAAUGUCCGACUGGAGCCGUUCGGGCGGCUAUAAACAGACCUCAGGCCCGAAGCGUGGCGGCACCUGCCGCCGGUGGUAAAAAAGAUCGGAAGAGCACACGUCU [U7A U8A G9U U11C C13U] | 1.04
GGGUCGCACAGUAAUAAUCGCGUGGAUAUGGCACGCAAGUUUCUACCGGGCACCGUAAAUGUCCGACUGGAGCCGUUCGGGCGGCUAUAAACAGACCUCAGGCCCGAAGCGUGGCGGCACCUGCCGCCGGUGGUAAAAAAGAUCGGAAGAGCACACGUCU [U7C U8A G9C U10A U11G C12U C13A] | 1.1
GGGUCGACCGCCAAUAAUCGCGUGGAUAUGGCACGCAAGUUUCUACCGGGCACCGUAAAUGUCCGACUGGAGCCGUUCGGGCGGCUAUAAACAGACCUCAGGCCCGAAGCGUGGCGGCACCUGCCGCCGGUGGUAAAAAAGAUCGGAAGAGCACACGUCU [U7A U8C G9C U10G U11C C13A] | 1.21
GGGUCGCGCAAGUAUAAUCGCGUGGAUAUGGCACGCAAGUUUCUACCGGGCACCGUAAAUGUCCGACUGGAGCCGUUCGGGCGGCUAUAAACAGACCUCAGGCCCGAAGCGUGGCGGCACCUGCCGCCGGUGGUAAAAAAGAUCGGAAGAGCACACGUCU [U7C U8G G9C U10A U11A C12G C13U] | 1.17
GGGUCGUCCGACCAUAAUCGCGUGGAUAUGGCACGCAAGUUUCUACCGGGCACCGUAAAUGUCCGACUGGAGCCGUUCGGGCGGCUAUAAACAGACCUCAGGCCCGAAGCGUGGCGGCACCUGCCGCCGGUGGUAAAAAAGAUCGGAAGAGCACACGUCU [U8C G9C U10G U11A] | 1.1

From the RNAGym collection of RNA variant scans (doi:10.1021/acssynbio.7b00057)
